Columns and labels:
GST activity toward CDNB = assay type: biochemical; details: recombinant wheat GST expressed in E. coli, affinity purified
Description: (§1) The purified isoenzymes were assayed for GST activity toward herbicides using the HPLC-based assays described by Edwards R. and Cole D. J. (Pesticide Biochemistry and Physiology Vol. 54, pp96-104 (1996)) and the results are presented in Table 2. […] These isoenzymes had additional activities as glutathione peroxidases able to reduce linoleic acid hydroperoxide, a major reaction product formed during membrane peroxidation in plants (Williamson and Beverly. J. Cereal Sci. 8, 1988, 155-163).
To confirm that TaGST1 encoded a GST, it was expressed as a fusion protein with beta-galactosidase using the pBluescript plasmid in E. coli strain SOLR. TaGST1 clones were inoculated into LB liquid medium and were grown overnight at 37/C on all orbital shaker in the presence of IPTG. Bacteria were then pelleted by centrifugation, lysed by sonication and assayed for GST activity toward CDNB and analysed by SDS-PAGE and Western blotting using the anti-TaGSTI-I serum. With all six TaGST1 clones, GST activity toward CDNB could be determined in the crude extracts in the range 30-50 nkat/mg crude lysate.
(§2) To assay the recombinant fusion proteins for GST activity, the E. coli were grown in the presence of IPTG and then pelleted by centrifugation. The bacteria were then lysed by sonication and the protein precipitated using 80% ammonium sulphate. After resuspension and desalting, GSTs were purified by affinity chromatography. The WIC 3 fusion protein was purified using sulphobromophthalein-S-glutathione affinity chromatography (Mozer et al. Biochem. 22, 1983, 1068-1072) while the other WIC fusion proteins were purified using glutathione-agarose (Mannervik and Guthenberg. Methods Enzymol. 77 1981, 231-235).The purified enzymes were then assayed for GST activities toward herbicides (Table 3) and GST activities toward non-herbicide substrates and glutathione peroxidase activities toward organic hydroperoxides (Table 4).
A polyclonal antiserum was raised in a rabbit to a mixture of TaGST1-2 and TaGST1-3. When tested against crude extracts from safener-treated wheat shoots the antiserum recognised both the 25 kDa TaGST1 subunit and the 26 kDa safener-inducible TaGST2 and TaGST3 subunits. The antiserum was then used in conjunction with the antiserum raised to TaGST1-1 to immuno screen the cDNA library prepared from fenchlorazole ethyl treated wheat shoots as described in example 1. Duplicate lifts were taken from the plated out library and the first blot screened with the antiserum raised against TaGST1-2 and TaGST1-3. The second blot was screened with the antiserum raised to TaGST1-1. Five plaques were identified from the first blot which were absent from the second blot corresponding to cDNAs encoding TaGST2 or TaGST3 like polypeptides and theses clones were purified and the respective plasmids sequenced. […] The other three clones ICC. ICP and ICV had identical DNA sequences (SEQ ID No. 17) and predicted amino acid sequence (SEQ ID No. 18). GST ICJ was sub-cloned into the pET 11a vector after using PCR to introduce a Nde 1 restriction site into the translation start site, using the primer 5′ AGGTAGTTACATATGGCCGGAGGA 3′ (SEQ ID No. 19) in the amplification. following sub-cloning, the sequence of GST ICJ was re-checked to ensure no PCR induced errors had been introduced. The recombinant GST ICJ was then expressed in E. coli and purified by S-hexylglutathione affinity chromatography. The purified GST ICJ was assayed for activities as a GST (Table 3) and as a glutathione peroxidase (Table 4). […] GST ICV was finally expressed as the respective beta-galactosidase fusion protein using the Bluescript plasmid and assayed for GST activity (Table 3 ) and glutathione peroxidase activity (Table 4) in crude bacterial lysates. […]

[1] = GST activity toward herbicide fluorodifen (HPLC-based assay); assay type: biochemical; details: recombinant wheat GST expressed in E. coli, affinity purified; ± standard error
Description: as §1, §2
(§3) A polyclonal antiserum was raised in a rabbit to a mixture of TaGST1-2 and TaGST1-3. When tested against crude extracts from safener-treated wheat shoots the antiserum recognised both the 25 kDa TaGST1 subunit and the 26 kDa safener-inducible TaGST2 and TaGST3 subunits. The antiserum was then used in conjunction with the antiserum raised to TaGST1-1 to immuno screen the cDNA library prepared from fenchlorazole ethyl treated wheat shoots as described in example 1. Duplicate lifts were taken from the plated out library and the first blot screened with the antiserum raised against TaGST1-2 and TaGST1-3. The second blot was screened with the antiserum raised to TaGST1-1. Five plaques were identified from the first blot which were absent from the second blot corresponding to cDNAs encoding TaGST2 or TaGST3 like polypeptides and theses clones were purified and the respective plasmids sequenced. […] The other three clones ICC. ICP and ICV had identical DNA sequences (SEQ ID No. 17) and predicted amino acid sequence (SEQ ID No. 18). GST ICJ was sub-cloned into the pET 11a vector after using PCR to introduce a Nde 1 restriction site into the translation start site, using the primer 5′ AGGTAGTTACATATGGCCGGAGGA 3′ (SEQ ID No. 19) in the amplification. following sub-cloning, the sequence of GST ICJ was re-checked to ensure no PCR induced errors had been introduced. The recombinant GST ICJ was then expressed in E. coli and purified by S-hexylglutathione affinity chromatography. The purified GST ICJ was assayed for activities as a GST (Table 3) and as a glutathione peroxidase (Table 4). […] GST ICV was finally expressed as the respective beta-galactosidase fusion protein using the Bluescript plasmid and assayed for GST activity (Table 3 ) and glutathione peroxidase activity (Table 4) in crude bacterial lysates. The specific activity of GST ICV toward these substrates was then calculated by I) subtracting the low levels of GST and GPOX activity present due the endogenous activities in the E. coli and ii) determining the proportion of protein in the lysate present as recombinant GST ICV from SDS-PAGE analysis, by densitometry analysis of polypeptides stained with Coomassie blue.

[2] = GST activity toward herbicide fenoxaprop-ethyl (HPLC-based assay); assay type: biochemical; details: recombinant wheat GST expressed in E. coli, affinity purified; ± standard error
Description: as §1, §2, §3

[3] = GST activity toward herbicide metolachlor (HPLC-based assay); assay type: biochemical; details: recombinant wheat GST expressed in E. coli, affinity purified; ± standard error
Description: as §1, §2, §3

[4] = Glutathione peroxidase activity toward cumene hydroperoxide; assay type: biochemical; details: recombinant wheat GST, affinity purified; ± standard error (n = 3)
Description: as §2, §3

[5] = GST activity toward benzyl isothiocyanate; assay type: biochemical; details: recombinant wheat GST, affinity purified; ± standard error
Description: as §2

[6] = GST activity toward crotonaldehyde; assay type: biochemical; details: recombinant wheat GST, affinity purified; ± standard error
Description: as §2

[7] = GST activity toward ethacrynic acid; assay type: biochemical; details: recombinant wheat GST, affinity purified; ± standard error; N.D = not detected
Description: as §2

[8] = molecular target: the molecule itself; assay: subunit composition of purified isoenzymes (anion exchange, reversed-phase HPLC, SDS-PAGE)
Description: The component polypeptides in the active fractions were then analysed by silver staining after resolution by sodium dodecyl sulphate polyacrylamide gel electrophoresis (SDS-PAGE). It was concluded that in fenchlorazole-ethyl-treated wheat the polar GSTs were composed of 25 kDa and 26 kDa polypeptides, while the hydrophobic fraction contained 25 kDa, 26 kDa and 24 kDa polypeptides. Further analysis by reversed-phase HPLC confirmed the subunit compositions (FIG. 2). Based on the combined analyses by Q-sepharose, HPLC and SDS-PAGE these GST polypeptides were named as described in Table 1, which also contains details of how these subunits associate together to form the active dimers found in plants and the relative abundance of these subunits in extracts from unsafened and fenchlorazole-ethyl treated (safened) plants.

Molecule | GST activity toward CDNB (GST activity toward CDNB) | GST activity toward fluorodifen [1] | GST activity toward fenoxaprop-ethyl [2] | GST activity toward metolachlor [3] | Glutathione peroxidase activity toward cumene hydroperoxide [4] | GST activity toward benzyl isothiocyanate [5] | GST activity toward crotonaldehyde [6] | GST activity toward ethacrynic acid [7] | binding result [8]
WIC 4: recombinant type I wheat GST, SEQ ID No. 11, amino acid SEQ ID No. 12; coding sequence identical in WIC 10 (protein, Triticum aestivum L.) MAPVKVFGPAMSTNVARVLVCLEEVGAEYEVVDIDFKAMEHKSPEHLVRNPFGQIPAFQDGDLLLFESRAIARYVLRKYKKNEVDLLREGDLKEAAMVDVWTEVDAHTYNPAISPIVYECSSTAHARLPTNQTVVDESLEKLKNVLEVYEARLSKHDYLAGDFVSFADLNHFPYTFYFMATPHAALFDSYPHVKAWWERIMARPAVKKLAAQMVPKKP | 980 nkat.mg^−1 | 0.036 ± 0.004 nkat.mg^−1 | 0.012 ± 0.001 nkat.mg^−1 | 0.037 ± 0.003 nkat.mg^−1 | 6.2 ± 0.3 absorbance change at 340 nm.mg^−1 | 4.2 ± 0.4 nkat.mg^−1 | 5.5 ± 0.6 nkat.mg^−1 | 1.4 ± 0.3 nkat.mg^−1 | –
Triticum aestivum GST 1 subunit (25 kDa) (enzyme, Native subunit in wheat shoot extracts; also called TaGST1) MAGEKGLVLLDFWVSPFGQRVRIALAEKGLPYEYAEEDLMAGKSDRLLRANPVHKKIPVLLHDGRAVNESLIILQYLEEAFPDAPALLPSDPYARAQARFWADYVDKKVYDCGSRLWKLKGEPQAQARAEMLDILKTLDGALGDKPFFGGDKFGFVDAAFAPFTAWFHSYERYGEFSLPEVAPKIAAWAKRCGERESVAKSLYSPDKVYDFIGLLKKKYGIE | – | – | – | – | – | – | – | – | binds
WIC 5: recombinant type I wheat GST, SEQ ID No. 9, amino acid SEQ ID No. 10 (protein, Triticum aestivum L.) MAPIKLYGMMLSANVTRVTTLLNELGLEFDFVDVDLRTGAHKHPDFLKLNPFGQIPALQDGDEVVFESRAINRYIATKYGASLLPTPSAKLEAWLEVESHHFYPPARTLVYELVIKPMLGAPTDAAEVDKNAADLAKLLDVYEAHLAAGNKYLAGDAFPLADANHMSYLFMLTKSPKADLVASRPHVKAWWEEISARPAWAKTVASIPLPPAV | 174 nkat.mg^−1 | 0.030 ± 0.002 nkat.mg^−1 | 0.067 ± 0.003 nkat.mg^−1 | 0.040 ± 0.004 nkat.mg^−1 | 1.3 ± 0.2 absorbance change at 340 nm.mg^−1 | 9.4 ± 2.0 nkat.mg^−1 | 4.5 ± 0.5 nkat.mg^−1 | – | –
WIC 2: recombinant type I wheat GST, SEQ ID No. 5, amino acid SEQ ID No. 6 (protein, Triticum aestivum L.) MAPAVKVYGWAVSPFVARPLLCLEEAGVEYELVSMSRAAGDHRQPDFLARNPFGQVPVLEDGDLTLFESRAIARHVLRKHKPELLGCGSPEAEAMVDVWLEVEAHQYNPAASAIVVQCIILPLLGGARDQAVVDENVAKLKKVLEVYEARLSASRYLAGDDISLADLSHFPFTRYFMETEYAPLVAELPHVNAWWEGLKARPAARKVTELMPPDLGLGKKAE | 187 nkat.mg^−1 | 0.096 ± 0.002 nkat.mg^−1 | 0.085 ± 0.002 nkat.mg^−1 | 0.512 ± 0.04 nkat.mg^−1 | 28.2 ± 1.7 absorbance change at 340 nm.mg^−1 | 33.3 ± 4.5 nkat.mg^−1 | 5.5 ± 1.3 nkat.mg^−1 | – | –
WIC 3: recombinant type I wheat GST, SEQ ID No. 7, amino acid SEQ ID No. 8; coding sequence identical in WIC 7 and WIC 8 (protein, Triticum aestivum L.) MAPVKLYGATLSWNVTRCVAALEEAGVQYEIVPINFGTGEHKSPDHLARNPFGQVPALQDGDLYVFESRAICKYACRKNKPELLKEGDIKESAMVDVWLEVEAHQYTAALSPILFECLIHPMLGGATDQKVIDDNLVKIKNVLAVYEAHLSKSKYLAGDFLSLADLNHVSVTLCLAATPYASLFDAYPHVKAWWTDLLARPSVQKVAALMKP | 2,519 nkat.mg^−1 | 0.014 ± 0.006 nkat.mg^−1 | 0.093 ± 0.002 nkat.mg^−1 | 0.053 ± 0.004 nkat.mg^−1 | 1.4 ± 0.3 absorbance change at 340 nm.mg^−1 | 9.0 ± 0.5 nkat.mg^−1 | 6.3 ± 0.9 nkat.mg^−1 | – | –

— patent US6730828B1, “Isolated nucleic acids encoding a wheat glutathione transferase, plants transformed therewith and methods of use thereof” (Aventis Agriculture Limited, priority 1997, dated 2004)
